Assay results reported in patent publication US20220185875A1 (JIANGSU HENGRUI MEDICINE, published 2022).
Each block holds one binder with its values, some of them ahead of it.

What was measured:
[1] = target: T1, human ANG1 (RD,923-AN) (human, UniProt Q15389 20-498, limits assumed); assay: ELISA, plate coated with human ANG1, OD450
T1 sequence (looked up): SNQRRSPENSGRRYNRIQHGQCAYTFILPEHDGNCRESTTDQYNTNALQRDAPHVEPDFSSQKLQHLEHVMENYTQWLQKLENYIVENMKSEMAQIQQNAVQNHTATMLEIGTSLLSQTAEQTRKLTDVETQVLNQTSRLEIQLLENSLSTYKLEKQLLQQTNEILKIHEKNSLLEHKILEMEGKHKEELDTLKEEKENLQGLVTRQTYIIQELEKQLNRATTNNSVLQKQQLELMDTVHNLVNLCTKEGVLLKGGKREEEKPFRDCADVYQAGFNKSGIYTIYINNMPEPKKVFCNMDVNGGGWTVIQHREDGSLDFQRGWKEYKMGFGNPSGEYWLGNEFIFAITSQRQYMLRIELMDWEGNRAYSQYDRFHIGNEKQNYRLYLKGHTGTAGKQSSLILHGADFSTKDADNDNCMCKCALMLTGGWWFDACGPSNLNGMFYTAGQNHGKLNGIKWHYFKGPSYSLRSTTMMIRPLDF
Procedure: (§1) The plate was coated with human ANG1 (RD,923-AN) at a concentration of 1 ng/μl, 100 μl per well overnight at 4° C. The supernatant was removed and 250 μl 5% skimmed milk powder was added for blocking at 37° C. for 1 h. The plate was washed with a washing machine for 3 times, and 100 μl 1:1 diluted phage supernatant was added and incubated at 37° C. for 1 h. The plate was washed with a washing machine for 3 times, and 100 μl 1:10000 diluted M13-HRP was added to each well and incubated at 37° C. for 1 h. The plate was washed with a washing machine for 3 times, and 100 μl TMB was added to each well for color development. After 5-10 min, 100 μl 1 M H₂SO₄ was added to each well to stop the color development, and the OD450 value was measured with a microplate reader.

[2] = target: T2, human ANG2 with human Fc tag (huANG2-Fc) (human, biotin label (Dojindo kit LK03, position not stated) in Test Examples 3 and 4; unlabelled in Test Example 5); assay: competition ELISA: Tie2-Fc coated, biotin-huANG2-Fc 0.15 ug/ml premixed with antibody; blocking of ANG2 binding to Tie2
T2 construct: It starts at YNNFRK, without a signal peptide; also called bio-huANG2-Fc; human Ang2-Fc
Procedure: Specific methods: the ELISA plate was coated with Tie2-Fc (SEQ ID NO: 2, 3 μg/ml dissolved in PBS, 100 μl/well) overnight at 4° C. and the coating solution was removed, 5% skimmed milk blocking solution diluted with PBS was added at 200 μl/well and incubated in a 37° C. incubator for 2 h for blocking. After the blocking was completed, the blocking solution was discarded and the plate was washed with PBST buffer (PBS containing 0.05% tween-20, pH 7.4) for 5 times. […] The solution was mixed well and then incubated at 37° C. for 15 min, added to the ELISA plate and incubated at 37° C. for 1 h. After the incubation was completed, the reaction solution in the ELISA plate was discarded and the plate was washed 5 times with PB ST. Then 1:4000 diluted streptavidin-peroxidase polymer (Sigma, 52438-250UG) was added at 100 μl/well and incubated at 37° C. for 1 h. After washing the plate 5 times with PBST, 100 μl/well TMB chromogenic substrate (KPL, 52-00-03) was added and incubated at room temperature for 3-10 min, and 1 M H₂SO₄ was added at 100 μl/well to stop the reaction.

[3] = target: T3, biotin-hAng2-His (sinobiological, 10691-H07H) (human, UniProt O15123 19-496, biotin label, position not stated); assay: ELISA, biotin-hAng2-His captured on streptavidin plate, OD450
T3 construct: Bought reagent; also called Human ANG2-his; human ANG2
T3 sequence (looked up): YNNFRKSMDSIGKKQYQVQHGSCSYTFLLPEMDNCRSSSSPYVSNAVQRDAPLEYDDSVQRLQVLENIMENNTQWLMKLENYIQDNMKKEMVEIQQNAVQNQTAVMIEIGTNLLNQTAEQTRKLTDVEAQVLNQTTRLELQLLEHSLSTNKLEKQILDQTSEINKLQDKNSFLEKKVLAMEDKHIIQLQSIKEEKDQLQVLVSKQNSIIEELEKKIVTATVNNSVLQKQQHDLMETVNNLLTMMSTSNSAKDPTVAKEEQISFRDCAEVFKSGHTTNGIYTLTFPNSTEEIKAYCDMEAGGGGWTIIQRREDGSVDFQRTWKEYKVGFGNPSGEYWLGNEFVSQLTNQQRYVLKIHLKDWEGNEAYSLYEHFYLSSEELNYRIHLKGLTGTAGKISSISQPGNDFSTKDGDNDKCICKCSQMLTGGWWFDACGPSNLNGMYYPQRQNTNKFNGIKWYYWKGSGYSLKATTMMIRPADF
Procedure: as §1, with “streptavidin (abcam, ab123480)” for “human ANG1 (RD,923-AN)”, “C., and then the” for “C. The”, “removed.” for “removed and”, “blocking at 37° C. for 1 h, and the plate was washed with a washing machine for 3 times. 0.5 ng/μl biotin-hAng2-His (sinobiological, 10691-H07H) was added and incubated” for “blocking”, “anti-M13-HRP (GE, 27-9421-01)” for “M13-HRP”

- binding result [1]: no binding (tested: 100 nM)
- IC50 [2]: 0.0393 nM
- EC50 (read off the curve) [3]: ~0.08 nM
B1: Llama-derived single domain antibody nano14 (VHH)
VHH: DVQLQESGGGLVQPGGSLRLSCAASGFTFDDFGMSWVRQAPGKGLEWVSSITWNGGSTYYADSVKGRFTISRDNAKNTVYLQMNSLKPEDTAIYYCNADHPQGYWGQGTQVTVSS

- binding result [1]: no binding (tested: 100 nM)
- IC50 [2]: 0.0281 nM
- EC50 (read off the curve) [3]: ~0.06 nM
B2: Llama-derived single domain antibody nano15 (VHH)
VHH: DVQLQESGGGLVQPGGSLRLSCAASGFTFNSYAMSWVRQAPGKGLEWVSTINSGGGRTGYADSVKGRFTISRDNAKNTLYLQMNSLKPEDTAIYYCNADHPQGYWGQGTQVTVSS
